From patent publication US20050208610 come the findings set out here.

Data set [1] deals with T1, peptide CR002 (amino acids 41-60).
T1 chain: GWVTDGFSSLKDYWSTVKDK

Data set [2] deals with T2, peptide CR006 (amino acids 49-62).
T2 chain: SLKDYWSTVKDKFS

B1: TF:VIIa complex (protein)
chain 1: SGTTNTVAAYNLTWKSTNFKTILEWEPKPVNQVYTVQISTKSGDWKSKCFYTTDTECDLTDEIVKDVKQTYLARVFSYPAGNVESTGSAGEPLYENSPEFTPYLETNLGQPTIQSFEQVGTKVNVTVEDERTLVRRNNTFLSLRDVFGKDLIYTLYYWKSSSSGKKTAKTNTNEFLIDVDKGENYCFSVQAVIPSRTVNRKSTDSPVECMGQEKGEFREIFYIIGAVVFVVIILVIILAISLHKCRKAGVGQSWKENSPLNVS
chain 2: ANAFLEELRPGSLERECKEEQCSFEEAREIFKDAERTKLFWISYSDGDQCASSPCQNGGSCKDQLQSYICFCLPAFEGRNCETHKDDQLICVNENGGCEQYCSDHTGTKRSCRCHEGYSLLADGVSCTPTVEYPCGKIPILEKRNASKPQGRIVGGKVCPKGECPWQVLLLVNGAQLCGGTLINTIWVVSAAHCFDKIKNWRNLIAVLGEHDLSEHDGDEQSRRVAQVIIPSTYVPGTTNHDIALLRLHQPVVLTDHVVPLCLPERTFSERTLAFVRFSLVSGWGQLLDRGATALELMVLNVPRLMTQDCLQQSRKVGDSPNITEYMFCAGYSDGSKDSCKGDSGGPHATHYRGTWYLTGIVSWGQGCATVGHFGVYTRVSQYIEWLQKLMRSEPRPGVLLRAPFP
Consider B1, for which the “2-stage chromogenic substrate assay that determines TF:VIIa-mediated activation of factor X” value in data set [1] is reported as “retained the ability to inhibit TF:VIIa mediated activation of factor X, but at much lower potency than the apolipoprotein CIII fragment”; with peptide CR003 it was “showed no inhibitory activity in the chromogenic substrate assay”; with peptide CR004 it was “showed no inhibitory activity in the chromogenic substrate assay”; with peptide CR005, “showed no inhibitory activity in the chromogenic substrate assay”; in data set [2], “Progressive loss of potency was shown as additional N-terminal residues were removed (CR006; amino acids 49-62)”.
